According to paper PMC10348947, “Catalytic antibodies in arrhythmogenic cardiomyopathy patients cleave desmoglein 2 and N-cadherin and impair cardiomyocyte cohesion” (Cellular and Molecular Life Sciences: CMLS, 2023):

Target: the molecule itself
Assay: atomic force microscopy (cell-free force spectroscopy); the same Fc construct covalently linked via a PEG linker to the AFM tip and to the mica sheet; 37 °C; HBSS buffer; loading force 0.3 nN, contact delay 0.1 s, retraction velocity 1 µm/s; 1000 force-distance curves for the baseline trans-interaction probability, then 1 h with patient or control IgG (1:50)

B1: Recombinant human N-cadherin extracellular domain tagged with Fc fragment (N-CAD-Fc) (Fc fusion, UniProt P19022 160-724, looked up)
chain: DWVIPPINLPENSRGPFPQELVRIRSDRDKNLSLRYSVTGPGADQPPTGIFIINPISGQLSVTKPLDREQIARFHLRAHAVDINGNQVENPIDIVINVIDMNDNRPEFLHQVWNGTVPEGSKPGTYVMTVTAIDADDPNALNGMLRYRIVSQAPSTPSPNMFTINNETGDIITVAAGLDREKVQQYTLIIQATDMEGNPTYGLSNTATAVITVTDVNDNPPEFTAMTFYGEVPENRVDIIVANLTVTDKDQPHTPAWNAVYRISGGDPTGRFAIQTDPNSNDGLVTVVKPIDFETNRMFVLTVAAENQVPLAKGIQHPPQSTATVSVTVIDVNENPYFAPNPKIIRQEEGLHAGTMLTTFTAQDPDRYMQQNIRYTKLSDPANWLKIDPVNGQITTIAVLDRESPNVKNNIYNATFLASDNGIPPMSGTGTLQIYLLDINDNAPQVLPQEAETCETPDPNSINITALDYDIDPNAGPFAFDLPLSPVTIKRNWTITRLNGDFAQLNLKIKFLEAGIYEVPIIITDSGNPPKSNISILRVKVCQCDSNGDCTDVDRIVGAGLGTGA
notes: N-cadherin (N-CAD), human, extracellular domain-containing protein; The Western blot and cleavage assay used Sino Biological #11039-H03H, probably the same protein; The chain was covalently linked through a PEG linker to the AFM tip and the mica sheet; also called hN-CAD-Fc
- binding result: binds
